Source: US12661396B2, “Selective targeting of the TREML1/MD2 interaction by small peptide or protein and its use for vaccine adjuvants” (Ascendo Biotechnology, Inc., priority 2020, dated 2026)

How the values were obtained:
[1] = system: Human peripheral blood mononuclear cells (PBMCs); assay: TLR agonist-induced TNF-α secretion in human PBMCs with or without TREML1 ECD; assay type: cell-based; conditions: human PBMCs, 18 hr; FIG. 7A
Experimental: Human peripheral blood samples from healthy volunteer donors were collected by venipuncture bled into ACD vacutainer tubes. Human peripheral blood mononuclear cells (PBMCs), which were separated from whole blood using Ficoll-Paque Plus (GE17-1440-03) according to the manufacturer's instructions. Human peripheral blood mononuclear cells (PBMCs) were pretreated with or without […]1 (10 ug/ml, 5 ug/ml and 1 ug/ml) and incubated for 30 min at 37° C. with 5% CO2. After treatments, cells were stimulated with TLR agonist, including R848 (InvivoGen #tlrl-r848) and ODN2395 (InvivoGen #tlrl-2395), and incubated at 37° C. with 5% CO2 for 18 hr. Supernatants of cell culture medium were collected for TNF-α measurements. Cell supernatants and plasma samples were harvested and stored at -80° C. Human TNFα concentrations were detected using TNF-α DuoSet ELISA kit (R&D #DY210) according to manufacturer's instructions. Signals were developed using 3,3',5,5'-tetramethylbenzidine and the absorbance of 450 nm was detected with a microplate reader.

[2] = target: TLR4 (Homo sapiens, UniProt O00206); assay: Solid phase binding assay, hTLR4 to immobilized TREML1 stalk; conditions: stalk coated 5 ug/ml; FIGS. 3A and 3B
Experimental: (§1) For TREML1 or mTREML1 stalk binding to human or mouse MD2 protein, TREML1 stalk or mTREML1 stalk (5 ug/ml in PBS) was coated separately on a 96-well plate. Recombinant hTLR4, hMD2, hCD14, or mMD2 was each serially diluted and added to the plates. Anti-His tag antibody-HRP was used as a detection antibody to detect the protein binding.

[3] = target: T1, MD2 (Homo sapiens, UniProt Q9Y6Y9); assay: Solid phase binding assay, hMD2 to immobilized TREML1 stalk; conditions: stalk coated 5 ug/ml; anti-His tag antibody-HRP detection; FIG. 3A
T1 sequence (Q9Y6Y9 19-160): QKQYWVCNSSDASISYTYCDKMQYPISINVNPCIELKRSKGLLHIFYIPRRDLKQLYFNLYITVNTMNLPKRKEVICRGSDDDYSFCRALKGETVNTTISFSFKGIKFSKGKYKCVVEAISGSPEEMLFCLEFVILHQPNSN
Experimental: as §1

[4] = target: T2, CD14 (Homo sapiens, UniProt P08571); assay: Solid phase binding assay, hCD14 to immobilized TREML1 stalk; conditions: stalk coated 5 ug/ml; FIGS. 3A and 3B
T2 sequence (P08571 20-345): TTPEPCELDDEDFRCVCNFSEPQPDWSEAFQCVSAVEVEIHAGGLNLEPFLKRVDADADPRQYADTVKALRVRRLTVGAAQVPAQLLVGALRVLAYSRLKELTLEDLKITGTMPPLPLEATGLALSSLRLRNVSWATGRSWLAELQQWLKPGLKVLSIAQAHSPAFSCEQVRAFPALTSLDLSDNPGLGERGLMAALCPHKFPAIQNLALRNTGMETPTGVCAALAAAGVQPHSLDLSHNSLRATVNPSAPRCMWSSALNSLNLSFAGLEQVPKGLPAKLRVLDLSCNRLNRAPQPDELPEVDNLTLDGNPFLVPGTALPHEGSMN
Experimental: as §1

[5] = system: BMDCs; assay: Mouse bone marrow derived dendritic cell maturation (flow cytometry); assay type: cell-based; conditions: FIG. 8
Experimental: Femurs and tibiae were harvested from female C57BL/6 mice and extra muscle tissues were removed. Bones were disinfected in 70% ethanol, then rinsed with RPMI-1640 medium, and both ends were cut to flush out the bone marrow with RPMI-1640 medium using 26 G needle syringes. To disperse cell clumps, bone marrow suspension was pipetted in-and-out several times and washed twice with RPMI-1640 medium by centrifugation. […] At day 0, after cell counting, the leukocytes were seeded at a concentration of 2×10^6 cells/10 ml R10 medium containing 200 U/ml rmGM-CSF in sterile […] Petri dish and incubated at 37° C. with 5% CO2. At day 3, another 10 ml of R10 medium containing 200 U/ml rmGM-CSF was added. At days 6, one half of the supernatant was taken out and centrifuged to collect cell pellet, which was resuspend in original plate with 10 ml of R10 medium containing 200 U/ml GM-CSF. At day 8, non-adherent cells were collected by gentle pipetting and centrifuged at 300 g for 5 min. To obtain purer dendritic cells, the population of macrophages (F4/80^high) was removed with Anti-F4/80 MicroBeads UltraPure (130-110-443, Miltenyi Biotec, Bergisch Gladbach, Germany) following the manufacturer's instructions. Briefly, cell pellet was resuspended and mixed well in MACS buffer with Anti-F4/80 MicroBeads UltraPure. This mixture was incubated for 15 min in the dark in 4° C. After washing cells with MACS buffer, cells were resuspended in MACS buffer, filtered with 30 μm nylon mesh, and added to the MACS buffer rinsed column to separate F4/80^+ cells. Unlabeled cells were collected and washed with R10 medium. To freeze the cells, cell pellet was counted and resuspended at a concentration 1×10^7 cell in 2 ml CELLBANKER2 (#11891, ZENOAQ) per cryopreservation vial and stored at −80 degree Celsius.
BMDCs were thawed for the DC maturation experiments. These cells were seeded at 1×10^6 cells/2 ml in R10 medium containing 200 U/ml rmGM-CSF in wells of a 6-well tissue culture dish and cultured to recover the cell viability at 37° C. with 5% CO2. After 6 hr, BMDCs were treated with various fragments of mTREML1 protein and cultured in 37° C. with 5% CO2. On the next day, resuspended cells were collected and analyzed by flow cytometry.
Cells were centrifuged at 1800 rpm for 3 min in PBS containing 1% FBS and 0.1% sodium azide (PBSBA), and then divided at a concentration of 1×10^5 cells/100 ul PBSBA in flow tube. Before staining the surface marker of DC, cells were treated with mouse Fc blocker to avoid antibody non-specific binding at room temperature for 30 min. […] After PBSBA washing, samples were analyzed using the CytoFlex flow cytometer with the CytExpert software.

Chain of TLR4 (O00206 24-839): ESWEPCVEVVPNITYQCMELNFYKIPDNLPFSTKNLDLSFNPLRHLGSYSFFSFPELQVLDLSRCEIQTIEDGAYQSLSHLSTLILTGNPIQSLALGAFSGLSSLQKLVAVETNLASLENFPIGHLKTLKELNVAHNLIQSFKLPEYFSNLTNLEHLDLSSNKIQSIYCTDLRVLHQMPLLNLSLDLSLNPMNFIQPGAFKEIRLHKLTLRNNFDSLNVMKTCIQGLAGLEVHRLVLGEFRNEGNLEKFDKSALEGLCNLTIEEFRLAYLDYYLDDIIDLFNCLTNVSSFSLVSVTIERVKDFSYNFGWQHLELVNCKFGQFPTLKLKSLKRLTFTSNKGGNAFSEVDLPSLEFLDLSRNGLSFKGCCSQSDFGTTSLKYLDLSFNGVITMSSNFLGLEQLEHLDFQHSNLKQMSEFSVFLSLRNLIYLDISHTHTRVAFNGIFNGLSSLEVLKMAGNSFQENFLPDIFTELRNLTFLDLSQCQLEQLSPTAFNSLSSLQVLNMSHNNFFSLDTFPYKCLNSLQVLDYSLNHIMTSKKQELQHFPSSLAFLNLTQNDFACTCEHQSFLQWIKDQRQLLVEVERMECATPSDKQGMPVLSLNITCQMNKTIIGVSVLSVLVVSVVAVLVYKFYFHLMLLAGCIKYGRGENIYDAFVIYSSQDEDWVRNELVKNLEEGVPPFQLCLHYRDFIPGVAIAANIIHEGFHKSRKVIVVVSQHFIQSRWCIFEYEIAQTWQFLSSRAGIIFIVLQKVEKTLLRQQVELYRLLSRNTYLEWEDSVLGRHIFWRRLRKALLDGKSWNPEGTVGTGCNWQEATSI

**Q.** With `CCOCc1nc2c(N)nc3ccccc3c2n1CC(C)(C)O` [R848, 4-amino-2-(ethoxymethyl)-α,α-dimethyl-1H-imidazo[4,5-c]quinoline-1-ethanol, reference compound] as the molecule, how does the “TNF-α secretion induced by TLR agonist alone” value [1] read?
**A.** Its value is “can induce TNF-α secretion”.

**Q.** How did the “TLR4 binding to immobilized TREML1 stalk” value [2] turn out when “TREML1 stalk: human TREML1 stalk polypeptide, SEQ ID NO:3, ILPPEEEEETHKIGSLAENAFSDPAGSANPLEPSQDEKSIP, chemically synthesized (listed as Homo sapiens)” was run?
**A.** The value was “do not bind TREML1 stalk”.

**Q.** And the “MD2 binding to immobilized TREML1 stalk” value [3]?
**A.** The value was “binds with TREML1 stalk in a concentration-dependent manner”.

**Q.** What about the “CD14 binding to immobilized TREML1 stalk” value [4] of the same molecule?
**A.** Its value is “do not bind TREML1 stalk”.

B1: mTREML1 ECD: mouse TREML1 extracellular domain, SEQ ID NO:2; recombinant, E. coli, polyhistidine tag at the N-terminus (protein, listed as Mus musculus)
chain: DSHPEVLQAPVGSSILVQCHYRLQDVRALKVWCQFLQEGCHPLVTSAVDRRAPGNGRIFLTDLGGGLLQVEMVTLQEEDTGEYGCVVEGAAGPQTLHRVSLLVLPPVPGPREGEEAEDEKETYRIGTGSLLEDPSLDPSASAGPHEFRRRENSIP
modifications: N-terminal polyhistidine tag
notes: recombinant, E. coli, polyhistidine tag at the N-terminus
**Q.** What does the source list for B1?
**A.** dendritic cell maturation effect compared with TNF-α [5]: significantly stronger than those of TNF-α; dendritic cell maturation (DC maturation markers CD40, CD86, CD80, MHC II) ([5]; analyzed the next day): can trigger dendritic cell maturation
